We go through 50 sequences from the supplement of paper PMC9112550, “Optimization of the antimicrobial peptide Bac7 by deep mutational scanning” (BMC Biology, 2022).
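Also: peptides expressed intracellularly from a pBAD plasmid library in pooled LB shake-flask culture, induced with 0.3% L-arabinose, DNA abundance read by NGS, three biological replicates, DESeq2 with apeglm shrinkage.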

The subject of the data set is Escherichia coli TOP10. The experiment in a line: shrunken log2 fold change of peptide-encoding DNA abundance (4.5 h post-induction vs induction); higher = less antimicrobial activity (less host growth inhibition). Conditions: time post-induction: 4.5 h; library: site-saturation at positions 5, 18, 19, 20.
On to RRIRTRPPRLPRPRPRPLQRPRP, for which the “shrunken log2 fold change” value was -0.063.
In the case of RRIRIRPPRLPRPRPRPHQYPRP, the “shrunken log2 fold change” value is -1.31.
Next, RRIRGRPPRLPRPRPRPIVYPRP: -0.0951; RRIRDRPPRLPRPRPRPKRSPRP: -0.0252.
Next, RRIRRRPPRLPRPRPRPRGFPRP: 0.131; RRIRPRPPRLPRPRPRPRIVPRP: -0.0281; RRIRFRPPRLPRPRPRPKPQPRP: 0.384.
In the case of RRIRVRPPRLPRPRPRPLIGPRP, the “shrunken log2 fold change” value was 0.0681.
Next, RRIRLRPPRLPRPRPRPVDVPRP: 0.0939.
As for RRIRRRPPRLPRPRPRPFIKPRP, the “shrunken log2 fold change” value was -0.368.
Turning to RRIRERPPRLPRPRPRPYLCPRP, the “shrunken log2 fold change” value is -0.554.
In the case of RRIRSRPPRLPRPRPRPSIRPRP, the “shrunken log2 fold change” value was -0.41.
Next, RRIRTRPPRLPRPRPRPRRGPRP: 0.604; RRIRDRPPRLPRPRPRPTNMPRP: -0.00949.
Consider RRIRKRPPRLPRPRPRPLAFPRP, for which the “shrunken log2 fold change” value came out at 0.278.
Next, RRIRCRPPRLPRPRPRPQYQPRP: -0.697; RRIRHRPPRLPRPRPRPGTFPRP: -0.132; RRIRWRPPRLPRPRPRPQHLPRP: -0.678.
The figure for RRIRARPPRLPRPRPRPQGRPRP is 0.104.
Next, RRIRDRPPRLPRPRPRPGMTPRP: 0.0654.
Take RRIRSRPPRLPRPRPRPMPPPRP: the “shrunken log2 fold change” value was 0.435.
Next, RRIRNRPPRLPRPRPRPCLDPRP: -0.0122.
As for RRIRLRPPRLPRPRPRPVVKPRP, the “shrunken log2 fold change” value is -0.166.
Turning to RRIRARPPRLPRPRPRPELQPRP, the “shrunken log2 fold change” value was determined as 0.731.
As for RRIRKRPPRLPRPRPRPYHTPRP, the “shrunken log2 fold change” value is -0.673.
With RRIRVRPPRLPRPRPRPDKQPRP, the “shrunken log2 fold change” value is -0.284.
For RRIRKRPPRLPRPRPRPEQCPRP, the “shrunken log2 fold change” value is 0.025.
The figure for RRIRTRPPRLPRPRPRPKRPPRP is -0.165.
As for RRIRFRPPRLPRPRPRPWAPPRP, the “shrunken log2 fold change” value is -0.013.
In the case of RRIRTRPPRLPRPRPRPPAIPRP, the “shrunken log2 fold change” value turned out to be 0.0134.
The figure for RRIRARPPRLPRPRPRPIYDPRP is -0.138; for RRIRWRPPRLPRPRPRPCERPRP it is -0.0115.
For the sequence RRIRMRPPRLPRPRPRPECPPRP, the “shrunken log2 fold change” value was determined as 0.43.
Next, RRIRGRPPRLPRPRPRPHARPRP: 0.629; RRIRKRPPRLPRPRPRPVMEPRP: 0.581; RRIRHRPPRLPRPRPRPCCTPRP: -0.181.
On to RRIRRRPPRLPRPRPRPGFKPRP, for which the “shrunken log2 fold change” value was determined as 0.0975.
Next, RRIRKRPPRLPRPRPRPYTSPRP: -0.05; RRIRNRPPRLPRPRPRPNHKPRP: -0.688; RRIRQRPPRLPRPRPRPKPVPRP: 0.407.
The figure for RRIRMRPPRLPRPRPRPNLCPRP is 0.015.
Next, RRIRIRPPRLPRPRPRPYVGPRP: -0.384; RRIRGRPPRLPRPRPRPTAVPRP: 2.41.
RRIRKRPPRLPRPRPRPWQCPRP: the “shrunken log2 fold change” value is -0.00136.
The figure for RRIRYRPPRLPRPRPRPPSLPRP is 0.289; for RRIRVRPPRLPRPRPRPMNIPRP it is -0.604; for RRIRPRPPRLPRPRPRPSAHPRP it is -0.167.
The figure for RRIRARPPRLPRPRPRPTPAPRP is 1.05.
Next, RRIRGRPPRLPRPRPRPITFPRP: -0.148.
For RRIRDRPPRLPRPRPRPRIRPRP, the “shrunken log2 fold change” value is -0.0469.
